This assay deals with T1, glutathione S transferase (GST)-SQUAMOSA PROMOTER BINDING PROTEIN-LIKE9 (SPL9) (Arabidopsis thaliana, UniProt Q700W2 1-375).
T1 construct: SPL9, Arabidopsis thaliana; full-length cDNA without stop codon recombined into pDEST15 (N-GST); also called GST-SPL9; source: Escherichia coli, purified; not shown: GST, N-terminal, kept
T1 sequence (looked up): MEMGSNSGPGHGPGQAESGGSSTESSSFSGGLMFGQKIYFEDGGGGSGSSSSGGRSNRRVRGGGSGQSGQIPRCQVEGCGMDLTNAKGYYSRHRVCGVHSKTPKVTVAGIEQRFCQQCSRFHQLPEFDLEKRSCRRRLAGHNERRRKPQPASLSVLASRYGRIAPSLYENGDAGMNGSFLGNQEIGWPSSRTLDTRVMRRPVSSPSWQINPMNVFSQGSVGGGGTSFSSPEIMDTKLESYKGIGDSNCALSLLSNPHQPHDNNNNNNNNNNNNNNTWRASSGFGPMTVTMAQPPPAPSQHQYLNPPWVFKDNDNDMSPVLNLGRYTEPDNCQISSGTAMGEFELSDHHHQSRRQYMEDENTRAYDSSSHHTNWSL
Nature of the assay: pull-down; glutathione beads with 1 µg GST-SPL9 incubated with 1 µg MBP or MBP-BZR1; 20 mM Tris-HCl pH 7.5, 100 mM NaCl, 1 mM EDTA, 4 °C, 1 h; washed 10 times with 300 mM NaCl, 0.5% TritonX-100; anti-MBP and anti-GST blots. The following applies: both partners purified.

B1: Maltose binding protein (MBP)-BRASSINAZOLE RESISTANT 1 (BZR1) (natural protein, Arabidopsis thaliana, UniProt Q8S307 1-336, looked up)
chain: MTSDGATSTSAAAAAAAAAAARRKPSWRERENNRRRERRRRAVAAKIYTGLRAQGDYNLPKHCDNNEVLKALCVEAGWVVEEDGTTYRKGCKPLPGEIAGTSSRVTPYSSQNQSPLSSAFQSPIPSYQVSPSSSSFPSPSRGEPNNNMSSTFFPFLRNGGIPSSLPSLRISNSCPVTPPVSSPTSKNPKPLPNWESIAKQSMAIAKQSMASFNYPFYAVSAPASPTHRHQFHTPATIPECDESDSSTVDSGHWISFQKFAQQQPFSASMVPTSPTFNLVKPAPQQMSPNTAAFQEIGQSSEFKFENSQVKPWEGERIHDVGMEDLELTLGNGKARG
notes: BZR1, Arabidopsis thaliana; also called MBP-BZR1; MBP-fused BZR1; source: Escherichia coli, purified
B1: the binding result is given as “binds”.

For the origin of these results see paper PMC8509050, “BZR1 Physically Interacts with SPL9 to Regulate the Vegetative Phase Change and Cell Elongation in Arabidopsis” (International Journal of Molecular Sciences, 2021).
